Data taken from patent publication US9650648.

How the values were obtained:
Assay in all cases: cell_activity
[1] = test system: ZFN 39172 (BCL11A exon 2) (synthetic); conditions: pair with 39145; CD34+ cells; 3.65X gamma mRNA
[2] = test system: ZFN 43490 (BCL11A exon 2) (synthetic); conditions: pair with 39145; K562
[3] = test system: ZFN 44642 (BCL11A exon 2) (synthetic); conditions: pair with 39145; K562
[4] = test system: ZFN 45147 (BCL11A exon 2) (synthetic); conditions: pair with 39145; K562; printed as 41547 in Table 1B, 45147 in Table 1A
[5] = test system: ZFN 45148 (BCL11A exon 2) (synthetic); conditions: pair with 39145; K562; printed as 41548 in Table 1B, 45148 in Table 1A
[6] = test system: ZFN 44945 (BCL11A-XL) (synthetic); conditions: pair with 44944; K562
[7] = test system: ZFN 44947 (BCL11A-XL) (synthetic); conditions: pair with 44946; K562
[8] = test system: ZFN 44910 (BCL11A-XL) (synthetic); conditions: pair with 44911; K562
[9] = test system: TALEN 102315 (gamma globin promoter) (synthetic); conditions: pair with 102320; K562, Cel-I
[10] = test system: TALEN 101291 (BCL11A exon 2) (synthetic); conditions: pair with 101292; K562, Cel-I
[11] = test system: ZFN 34360 (gamma globin -175) (synthetic); conditions: pair with 34363; K562, Cel-I
[12] = test system: ZFN 43544 (beta-globin IVS1.1) (synthetic); conditions: pair with 43545; CD34+ cells
[13] = test system: TALEN 101304 (BCL11A exon 4) (synthetic); conditions: pair with 101301; CD34+ cells; 2.31X gamma mRNA
[14] = test system: ZFN 44911 (BCL11A-XL) (synthetic); conditions: pair with 44910; K562
[15] = test system: ZFN 34398 (gamma globin -175) (synthetic); conditions: pair with 34400; K562, Cel-I
[16] = test system: ZFN 36021 (KLF1 exon 1) (synthetic); conditions: pair with 36004; CD34+ cells; 2.2X gamma mRNA
[17] = test system: TALEN 102320 (gamma globin promoter) (synthetic); conditions: pair with 102315; K562, Cel-I
[18] = test system: ZFN 39145 (BCL11A exon 2) (synthetic); conditions: pair with 39172; CD34+ cells; 3.65X gamma mRNA
[19] = test system: ZFN 44489 (BCL11A exon 2) (synthetic); conditions: pair with 39172; K562
[20] = test system: ZFN 44490 (BCL11A exon 2) (synthetic); conditions: pair with 39172; K562
[21] = test system: ZFN 44493 (BCL11A exon 2) (synthetic); conditions: pair with 39172; K562
[22] = test system: ZFN 45081 (BCL11A exon 2) (synthetic); conditions: pair with 39172; K562
[23] = test system: TALEN 102314 (gamma globin promoter) (synthetic); conditions: pair with 102318; K562, Cel-I; 2.14X gamma mRNA in CD34+
[24] = test system: ZFN 44888 (BCL11A-XL) (synthetic); conditions: pair with 44889; K562
[25] = test system: ZFN 31160 (gamma globin -175) (synthetic); conditions: pair with 34365; K562; 45.22% in CD34+; 1.63X gamma mRNA
[26] = test system: ZFN 36071 (KLF1 exon 2) (synthetic); conditions: pair with 36085; CD34+ cells; 3.17X gamma mRNA
[27] = test system: TALEN 102321 (gamma globin promoter) (synthetic); conditions: pair with 102316; K562, Cel-I
[28] = test system: ZFN 36004 (KLF1 exon 1) (synthetic); conditions: pair with 36021; CD34+ cells; 2.2X gamma mRNA
[29] = test system: TALEN 101301 (BCL11A exon 4) (synthetic); conditions: pair with 101304; CD34+ cells; 2.31X gamma mRNA
[30] = test system: ZFN 34539 (gamma globin -110) (synthetic); conditions: pair with 34574; CD34+ cells; 5.38X gamma mRNA
[31] = test system: ZFN 43852 (gamma globin -110) (synthetic); conditions: pair with 43865; CD34+ cells
[32] = test system: ZFN 43545 (beta-globin IVS1.1) (synthetic); conditions: pair with 43544; CD34+ cells
[33] = test system: ZFN 44905 (BCL11A-XL) (synthetic); conditions: pair with 44904; K562
[34] = test system: TALEN 102316 (gamma globin promoter) (synthetic); conditions: pair with 102321; K562, Cel-I
[35] = test system: ZFN 44944 (BCL11A-XL) (synthetic); conditions: pair with 44945; K562
[36] = test system: ZFN 44946 (BCL11A-XL) (synthetic); conditions: pair with 44947; K562
[37] = test system: ZFN 44889 (BCL11A-XL) (synthetic); conditions: pair with 44888; K562
[38] = test system: ZFN 34363 (gamma globin -175) (synthetic); conditions: pair with 34360; K562, Cel-I
[39] = test system: TALEN 102568 (gamma globin -110) (synthetic); conditions: pair with 102566; CD34+ cells, MiSeq; 6.25X gamma mRNA
[40] = test system: TALEN 102566 (gamma globin -110) (synthetic); conditions: pair with 102568; CD34+ cells, MiSeq; 6.25X gamma mRNA
[41] = test system: ZFN 44904 (BCL11A-XL) (synthetic); conditions: pair with 44905; K562
[42] = test system: ZFN 36085 (KLF1 exon 2) (synthetic); conditions: pair with 36071; CD34+ cells; 3.17X gamma mRNA
[43] = test system: TALEN 102318 (gamma globin promoter) (synthetic); conditions: pair with 102314; K562, Cel-I; 2.14X gamma mRNA in CD34+
[44] = test system: ZFN 34365 (gamma globin -175) (synthetic); conditions: pair with 31160; K562; 45.22% in CD34+; 1.63X gamma mRNA
[45] = test system: ZFN 34400 (gamma globin -175) (synthetic); conditions: pair with 34398; K562, Cel-I
[46] = test system: ZFN 34574 (gamma globin -110) (synthetic); conditions: pair with 34539; CD34+ cells; 5.38X gamma mRNA
[47] = test system: ZFN 43865 (gamma globin -110) (synthetic); conditions: pair with 43852; CD34+ cells
[48] = test system: ZFN 34642 (BCL11A exon 4) (synthetic); conditions: pair with 34678; CD34+ cells; 3.52X gamma mRNA
[49] = test system: TALEN 101292 (BCL11A exon 2) (synthetic); conditions: pair with 101291; K562, Cel-I
[50] = test system: ZFN 34678 (BCL11A exon 4) (synthetic); conditions: pair with 34642; CD34+ cells; 3.52X gamma mRNA

Sequence: CTCCAGAAGGGGATCATGACCTCCTCAC (double strand) [BCL11A exon 2 site, SEQ 160]
- activity [1]: 69.8 % indels
- activity [2]: 19.9 % indels
- activity [3]: 38.5 % indels
- activity [4]: 35.6 % indels
- activity [5]: 42.3 % indels

Sequence: AAGCTCACCAGGCACATGAAAACGCATG (double strand) [BCL11A-XL 44945 site]
- activity [6]: 24 % indels

Sequence: CTCACCAGGCACATGAAAACGCATGGCC (double strand) [BCL11A-XL 44947 site]
- activity [7]: 34.2 % indels

Sequence: CTCCTGTGGACAGTGAGATTGCTACAGT (double strand) [BCL11A-XL 44910 site]
- activity [8]: 36.4 % indels

Sequence: GTATCCTCTTGGGGGCCC (double strand) [HBG TALEN 102315 site]
- activity [9]: 47.9 % NHEJ

Sequence: CTGTGGGCAGTGCCAGATGA (double strand) [BCL11A exon 2 TALEN 101291 site]
- activity [10]: 0.8 % indels

Sequence: TTGCATTGAGATAGTGTGGGGAAGGGGC (double strand) [HBG -175 34360 site]
- activity [11]: 39 % NHEJ

Sequence: AATCTGCCCAGGGCCTCACCACCAACTT (double strand) [HBB IVS1.1 43544 site]
- activity [12]: 52.6 % NHEJ

Sequence: GTTAAAGGGGTTATTGTCT (double strand) [BCL11A exon 4 TALEN 101304 site]
- activity [13]: 35.7 % indels

Sequence: GCCACACGGGCGAAAGGCCTTATAAATG (double strand) [BCL11A-XL 44911 site]
- activity [14]: 36.4 % indels

Sequence: TTTGCATTGAGATAGTGTGGGGAAGGGG (double strand) [HBG -175 34398 site]
- activity [15]: 54 % NHEJ

Sequence: ACACACAGGATGACTTCCTCAAGGTGGG (double strand) [KLF1 exon 1 36021 site]
- activity [16]: 44.4 % indels

Sequence: ATATTTGCATTGAGATAGT (double strand) [HBG TALEN 102320 site]
- activity [17]: 47.9 % NHEJ

Sequence: CCCAACGGGCCGTGGTCTGGTTCATCAT (double strand) [BCL11A exon 2 site, SEQ 170]
- activity [18]: 69.8 % indels
- activity [19]: 24.3 % indels
- activity [20]: 29.4 % indels
- activity [21]: 25.7 % indels
- activity [22]: 27.8 % indels

Sequence: GTATCCTCTTGGGGGCC (double strand) [HBG TALEN 102314 site]
- activity [23]: 41.6 % NHEJ

Sequence: TTGCTACAGTTCTTGAAGACTTTCCCAC (double strand) [BCL11A-XL 44888 site]
- activity [24]: 35.1 % indels

Sequence: TATTTGCATTGAGATAGTGTGGGGAAGG (double strand) [HBG -175 31160 site]
- activity [25]: 53 % NHEJ

Sequence: GGTGAGGAGGAGATCCAGGTCCCAGGTG (double strand) [KLF1 exon 2 36071 site]
- activity [26]: 22.6 % indels

Sequence: ATATTTGCATTGAGATAG (double strand) [HBG TALEN 102321 site]
- activity [27]: 46.6 % NHEJ

Sequence: GGGAAGGGGCCCAGGGCGGTCAGTGTGC (double strand) [KLF1 exon 1 36004 site]
- activity [28]: 44.4 % indels

Sequence: ATGTCCTTCCCAGCCACCTCT (double strand) [BCL11A exon 4 TALEN 101301 site]
- activity [29]: 35.7 % indels

Sequence: TGGTCAAGGCAAGGCTGGCCAACCCATG (double strand) [HBG -110 34539/43852 site]
- activity [30]: 45.7 % NHEJ
- activity [31]: 56.1 % NHEJ

Sequence: ATCAAGGTTACAAGACAGGTTTAAGGAG (double strand) [HBB IVS1.1 43545 site]
- activity [32]: 52.6 % NHEJ

Sequence: GAGAAGCCACACGGGCGAAAGGCCTTAT (double strand) [BCL11A-XL 44905 site]
- activity [33]: 25.4 % indels

Sequence: GTATCCTCTTGGGGGCCCC (double strand) [HBG TALEN 102316 site]
- activity [34]: 46.6 % NHEJ

Sequence: CTACTCTGGGCACAGGCATAGTTGCACA (double strand) [BCL11A-XL 44944/44946 site]
- activity [35]: 24 % indels
- activity [36]: 34.2 % indels

Sequence: CTCACTGTCCACAGGAGAAGCCACACGG (double strand) [BCL11A-XL 44889 site]
- activity [37]: 35.1 % indels

Sequence: ATCTGTCTGAAACGGTCCCTGGCTAAAC (double strand) [HBG -175 34363 site]
- activity [38]: 39 % NHEJ

Sequence: TTGGTCAAGTTTGCCTTGTCA (double strand) [HBG -110 TALEN 102568 site]
- activity [39]: 51.4 % NHEJ

Sequence: GTTGGCCAGCCTTGCCTTGAC (double strand) [HBG -110 TALEN 102566 site]
- activity [40]: 51.4 % NHEJ

Sequence: TGGACAGTGAGATTGCTACAGTTCTTGA (double strand) [BCL11A-XL 44904 site]
- activity [41]: 25.4 % indels

Sequence: CTTCTCGGGCCCGGAGCCCGGTGGCGCG (double strand) [KLF1 exon 2 36085 site]
- activity [42]: 22.6 % indels

Sequence: ATATTTGCATTGAGATAGTGT (double strand) [HBG TALEN 102318 site]
- activity [43]: 41.6 % NHEJ

Sequence: CTGTCTGAAACGGTCCCTGGCTAAACTC (double strand) [HBG -175 34400/34365 site]
- activity [44]: 53 % NHEJ
- activity [45]: 54 % NHEJ

Sequence: GCCTTGACAAGGCAAACTTGACCAATAG (double strand) [HBG -110 34574/43865 site]
- activity [46]: 45.7 % NHEJ
- activity [47]: 56.1 % NHEJ

Sequence: ATCCCATGGAGAGGTGGCTGGGAAGGAC (double strand) [BCL11A exon 4 34642 site]
- activity [48]: 82.2 % indels

Sequence: CTCGATAAAAATAAGAATGT (double strand) [BCL11A exon 2 TALEN 101292 site]
- activity [49]: 0.8 % indels

Sequence: ATATTGCAGACAATAACCCCTTTAACCT (double strand) [BCL11A exon 4 34678 site]
- activity [50]: 82.2 % indels
